Source: publication PMC8565349 (Nucleic Acids Research, 2021)

Key:
cryo-EM structure = target: the molecule itself; experiment: cryo-EM structure
SEC-MALS = target: the molecule itself; experiment: SEC-MALS
[1] = target: T1, purified S. aureus β-clamp (ITC sample) (S. aureus, UniProt P0A024 1-377); experiment: ITC
T1 sequence: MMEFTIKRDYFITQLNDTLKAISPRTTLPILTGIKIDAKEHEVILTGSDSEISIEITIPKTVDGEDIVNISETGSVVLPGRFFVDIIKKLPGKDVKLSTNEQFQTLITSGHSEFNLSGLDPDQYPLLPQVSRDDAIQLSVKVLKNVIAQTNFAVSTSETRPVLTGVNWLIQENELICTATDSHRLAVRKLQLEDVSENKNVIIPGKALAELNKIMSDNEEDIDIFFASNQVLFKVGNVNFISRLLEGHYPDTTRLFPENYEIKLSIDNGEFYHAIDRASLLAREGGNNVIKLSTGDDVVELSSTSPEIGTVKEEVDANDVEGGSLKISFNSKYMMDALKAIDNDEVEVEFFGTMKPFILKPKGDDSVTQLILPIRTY

SEC = target: the molecule itself; experiment: SEC

B1: polyhistidine-tagged Gp168 of bacteriophage Twort (natural protein)
chain: MLFFKEKFYNELSYYRGGHKDLESMFELALEYIEKLEEEDEQQVTDYENAMEEELRDAVDVIESQLEIIKDIVR
- stoichiometry N (cryo-EM structure): 2
- stoichiometry N (SEC-MALS): 6
- Kd [1]: 95 ± 16.7 nM
- stoichiometry N [1]: 0.16 ± 0.003

B2: polyhistidine-tagged Gp168 Y14A (natural protein, bacteriophage Twort)
chain: MLFFKEKFYNELSAYRGGHKDLESMFELALEYIEKLEEEDEQQVTDYENAMEEELRDAVDVIESQLEIIKDIVR
- stoichiometry N (SEC): 6
